Experiment: yeast display, Sf9 membrane polyspecificity reagent, FACS + sequencing; frameworks hold sequencing errors
Method in brief: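 Sorting gates, low and high (top ~1%), were placed on anti-HA fluorescence to track expression and on streptavidin fluorescence to track reagent binding. A clone's polyreactivity label is taken from the gate it came out of. The reagent was 10% biotinylated, detergent-solubilized Sf9 membrane, applied for 1 hour at 4 °C to galactose-induced yeast display cells.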

Row | Sequence | polyreactivity (PSR sort gate)
1 | QVQLVESGGGLVQAGGSLRLSCAASGSTVYVYTMGGYRQAPGKERELVAANSLSGDNTYYADSVKGRFTISRDNAKNTVYLQKNSLKPEATAVYYCNADIIGFPADYLYDYWGQGTQVTVSS | low polyreactivity
2 | QVQLVESGGGLVQAGGSLRLSCAASGSIFSYYTMGWYRPAPGKERELVAAISYSGGRTYYADSVKGRFTISRDNAKNTVYLQMNSLKTEDTAVYYCSAKLLQLRGRGYEYWGQGTQVTVSS | high polyreactivity
3 | QVQLVESGGGLVQAGGSLRLSCAASGRTFAKYGMGWYIQAPGKERELVAAIDYSGGSTYYADSVKGRFTISRDNAKNTVYLQMNSLKPEDTAVYYCAADYFWLYYSEYGYWGQGTQVTVSS | low polyreactivity
4 | QVQLVESGGGLFQAGGSRRLICSASGFTFASNAMGWYRQAPGKERELVAAITSRGGGTYYADSVKGRFTISRDNAKNTVYLQMNSLKPEDTAVYYCNVVYGVRYFNSRGYYYWGQGTQVTVSS | high polyreactivity
5 | QVQLVESGGGLVQAGGSLRLSCAASGSTFGYYAMGWYRQAPGKERELVAAISYSGGSTYYADSVKGRFTISRDNAKNTVYLQMNSLKPEDTAVYYCAARLTRQMYYWGQGTQVTVSS | high polyreactivity
6 | QVQLVESGGGLVQAGGSLRLSCAASGSTFVLYAMGWYRQAPGKERELVAAINSAGSTNYADSVKGRFTISRDNAKNTVYLQMNSLNPEDTAVYYCAAEYYYSYVDRTYYIYDYWGQGTQVTVSS | high polyreactivity
7 | QVQLVESGGGLVQAGGILRLSCASSGITFRQYAMEWYRQAPGKERELVATITSRGGSTYYADSVKGRFTISRDNAKNSVYLQMISLKPEDTADYYCAAKTPTKDRGSDFDYWGQCTQVTVSS | high polyreactivity
8 | QVQLVESGGGLVQAGGSLRLSCAASGRIFKKNAMGWYRQAPGKERELVAAISYRGGSTYYADSVKGRFTISRDNAKNTVYLQMNSLKPEDTAVYYCNVGSRGGWDASDYDYWGQGTQVTVSS | high polyreactivity
9 | QVQLVESGGGLVQAGGSLRLSCAASGITLTNNAMGWSRHAPGKERELVAAITRSGGSTYYADSVKGRFTISRDNAKNTVYLLMNSLKPEVTAVYCAARWYSYSGSIRSYDYWGQGTQVTVSS | low polyreactivity
10 | QVQLVETGGGLVQAGGSLRLSCAASGSIFKNNAMGGYRQAPGKERELVAAIRSYGGSTYYADSVKGRFTISRDNAKNTVYLQMKSLKPEDTAVYYCAARYRSYPTYYQYNYWGQGTQVTVSS | high polyreactivity
11 | QVQLVVSGGGLVQAGGSLRLSCAASGSTIASNAMGWYRQAPGKERELVAGISSSDGGTYYADSVKGRFTISRDNAKNNVYLEMNSLKREDTAVYYCNAPPGTFQWQGHSDYWGQGTQVTVSS | low polyreactivity
12 | QVQLVESGGGLVQAGGSLRLSCAASGFIFDSYAMGWYRQAPGKERELVAAITTSGGRSYYADSVKGRFTISRDNAKNTVYLQMNSLKPEDTAVYYCAAKYTARWGFDYWGQGTQVTVSS | high polyreactivity
13 | QVQLVESGGGLVQAGGSLRLSCAASGRTFRANAMGWYRQAPGKERELVAAITSTGDRTYYADSVKGRFTISRDNAKNTVYLQMNSLKPEDTAVYYCAAENNRYGGYRKYDYWGQGTQVTVSS | low polyreactivity
14 | QVQLVESGGGLVQAGGSLRLSCAASGITLGTNAMGWYRQAPGKERELVAAIRRSGGSTYYADSVKGRFTISRDNAKNTVYLQMNSLKPEDTAVYYCAAVVSVNMYWGQGTQVTVSS | low polyreactivity
15 | QVQLVESGGGLVQAGGSLRLSCAASGSIFFDGNAMGWYRQAPGKERELVAAISVSGGSTYYADSVKGRFTISRDYAKTTVYLQINRLKPEDTAVYDCAKYPSKSYVPGDYWGQGTQVTVSS | low polyreactivity
16 | QVQLVESGGGLVQAGGSLRLSCAASGFTFRFYAMGWYRQAPGKERELVAAISRRGGTTYYADSVKGRFTISRDNAKNTVYLQMNSLKPEDTAVYYCNKDWTYEHGYWGQGTQVTVSS | high polyreactivity
17 | QVLLVESGGGLVQAGGSLSISCAASGSTFGYYPMGWYRQAPGKEREFVAAISSRDGSTFYADSVQGRFTISRDNAKNTVYLQMNSLKPEDTAVYYCAKVFFHTPIVPEYDYWGQGTQVTVSS | low polyreactivity
18 | QVQLVETGGGLVQAGGSLRLSCSASRLTFVYYTMGWYRQAPGKERELVAAITSSGGSTYYADSLKGRFTISRDNAKNTVYLQMNSLKPEDTAVSYCNAYWTYEFPSYDYWGPGTQVTVSS | low polyreactivity
19 | QVQLVESGGGLVQAGGSLRLSCAASGGTFAVNVMGWYRQAPGKERELVAAITSNGGSTYYADSVKGRFTISRDNAKNTVYLQMNSLTPEATAVYYCAAEGSGWYTGHYYYWGQGTQVTVSS | low polyreactivity
20 | QVQLVESGGGLVQAGGSLRLTCAASGSTFRYYDMGWYRQAPGKERELVAAITTSGDDTYYADSVKRRFTISRDNAKNSVYLPMNSLKPEDTAVYYCAADGYGGHKYELESWGQGTQVTVSS | low polyreactivity
21 | QVQLVESGGGLVQAGGSLRLSCAASGRTSGFNTMGWYRQAPGKERELVAAISFSGGSTYYADSVKGRFTISRDYSKNTVYLQMNSLKPEDTAVYYCTALYRYLYRSGDYWGQGTQVTVSS | low polyreactivity
22 | QVPLVESGGGLVQAGGILRLSCAASGRTFRYNVMGCYRQAPGKERELVASISRISGSTYYADSVKGRFTISRDNAKNTVYLQMNSLKPEDTAVYYCAATVKLKHYPYVGFGYWGQGTQVTVSS | high polyreactivity

Row | Sequence | polyreactivity (PSR sort gate)
23 | QVQLVESGGGLVQAGGSLRLSCASSGSIFLINAMGWYRQAPGKERELVAAISRSGGRTYYADSVKGRFTISRDNAKNTVYLQMNSLKPEDTAVYYCAVPSIYYAGRAYDYWGQGTQVTVSS | high polyreactivity
24 | QVQLVESGGGLVQAGGSLRLICAASGFTFSYNAMGWYRPAPGTERELVAVITKSGGSTNYADSVKGRFTISRDNAKNTVYLQRNSLKPEDTAVYYCNRQIKKLLTTHYYWGQGTQVTVSS | high polyreactivity
25 | QVQLVESGGGLVQAGGSLRLSCAASGNIFRSYAMGWYRQAPGKERELVAAISSRGGSTYYADSVKGRFTISRDNAKNTVYLQMNSLKPEDTAVYYCNAPSTQQGPKYDYWGQGTQVTVSS | low polyreactivity
26 | QVQLVESGGGLVQAGGSLRLSCAASGSTFNINAMGWYRQAPGKERELVAAISSRGGSTYYADSVKGRFTISRDNAKNTVYLQMNSLKPEDTAVYYCAASPRRVENAGRVRLYYWGQGTQVTVSS | high polyreactivity
27 | QVQLVESGGGLVQAGGSLRLSCAASGSTFPRYAMGWYRQAPGKEREFVAAISRRGGSTYYADSVKGRFTISRDNAKNTVYLQMNSLKPEDTAVYYCAKYLPTRVWGTGRFDYWGQGTQVTVSS | high polyreactivity
28 | QVQLVESGGGLVQAGGSLRLSCGASGRTFPVYAMGWYRQAPGKERELVADISDGGSTNYADSVKGRFTISRDNAKNTVDLQMNSLKPEDTAVYYCNATTFAFSPSLKGAYGYWGQGTQVTVST | low polyreactivity
29 | QVQLVESGGGLVQAGGSLRLSCAPSGGIFGRNAMGWYRQAPGKESELVAGITNGGSTTYADSVKGRFTISRDNAKNTVYLQMNSLKPEDTAVYYCAVQLYRRWPYYQTHGYDYWGQGTQVTVTS | low polyreactivity
30 | QVQLVESGGGLVQAGGSLRLSCAASGRIFNGNAMGWYRQAPGKERELVAAISVSGGSTYYADSVKGRFTISRDNAKNTVYLQMNSLKPEDTAVYYCAARTSSYSFPYAYNYWGQGTQVTVSS | high polyreactivity
31 | QVQLVESGGGLVQAGGILRLSCDASGSTFVLYAMGWYRQAPGKERELVAAIRKSGGSTYYADSVKGRFTISRDNAKIYVYLQMNSLKPEDTAVYYCNATNYIYEYHYWGQGTQVTVSS | low polyreactivity
32 | QVQLVESGGGLVQAGGSLRLSCAASGSTFPRNDMGWYRQAPGNERELVAAISRGGSTNYADSVKGRFTISRDNANNTVYLQMNSMKPEDTAVYYCAAQIFESAYGMDYWGQGTQVTVSS | low polyreactivity
33 | QVQLVESGGGLVQAGGSLRLSCAASGFTFAYYAMGWYRQAAGKERELVAAITVSGASTYYADSVKGRFTISRDNAKNTDYLQMNRLKPEETAVYYCARYYAIVSGYYDDGYWGQGTQVTVSS | high polyreactivity
34 | QVQLVESGGGLVQAGGSLRLSCAASGSIFRPNAMRWYRQAPGKERELVAAISSGDSTNYADSVKGRFTISRDNAKNTVYLLMNSLKAEDTAVYYCNTDKYSESYRSYEYWGQGTQVTVSS | low polyreactivity
35 | QVQLVESGGGLVQAGGSLRLSCAASGSIFYSNAKGWYRQAPGKERELVATITWSGGRTYYADSVKGRFTISRDNAKNTVYLQMNILKPEDTAVYYCAAVSIYWGQGTQVTVSS | low polyreactivity
36 | QVQLVESGGGLVQAGGSLRLSCAASGSTFKSYAKGWYRQAPGKEREFVAAIRGNGARTYYADSVKGRITISRDNAKNTVYFQMNSLKPEDTAVYYCNAVRYSFSDSSVDYWGQGTQVTVSS | high polyreactivity
37 | QVQLVESRGVLVQAGGSLRLSCAASGSIFEWYAMGWYRQAPGKERELVAVISDGSTNYADSVKGRFTISRDNAKKTVYLQMNSLKPEDPAVSYCAADPFDGYSSSEYDYWGQGTQVTVSS | low polyreactivity
38 | QVQLVESGGGLVQAGGSLRLSCAASGSTFNPYAMGWYRQAPGKERELVAAINSRGGSTYYADSVKGRFTISRDNAKNTVYLQMNSLKPEDSAVYYCAARTRRRTSAYEYWGQGTQVTVSS | high polyreactivity
39 | QVQLVESGGGLVQAGGSLRLSCAASGFTFGANVMGWYRQAPGKERELVAAINTRGSRTYYADSVKGRFTISRDHAKNTVYLQMNRLKQEDTAVYYCAAALRKEYDYWGQGTQVTVSS | high polyreactivity
40 | QVQLVESGGGLVQAGGSLRLSCAATGGTFNVYAMGWYRQAPGKESELVAAIRWSGGSTYYADSVKGRFTISRDNAKNTVYLQMNSLKPEDTAVYYCAARFYGRSQTYGSWGLGTQVTVSS | high polyreactivity
41 | QVQLVESGGGLVQAGGSLRLSCAASGRTLGYYAKGWYRQAPGKERELVAAISRSGGSTYYADSVKGRFTISRDNAKNTVYLQMNSLKPEDTAVYYCAATYGPSRYRYDYWGQGTQVTVSS | high polyreactivity
42 | QVQLVESGGGLVQAGGSLRLSCAASGFIFSVNAMGWYRQAPGKERELVAAISKRGGRTYYADSVKGRFTISRDNAKNTVYLQMNSLKPEDTAVYYCAADQPTLAYPGGYSAGMDYWGQGTQVTVSS | high polyreactivity
43 | QVQLVESGVGLVQAGGSLRLSCAASGIITFYNAMGWYRQAPGKERELVAAITWSGGSTYYADSVKGRFTISRDNAKNTVYVQLNSLKPEDTAVYYCAADVVSVVYLPFVNGGDYWGLGTQVTVSS | low polyreactivity
